Assay: yeast display, Sf9 membrane polyspecificity reagent, FACS + sequencing; frameworks hold sequencing errors
Outline: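 A synthetic nanobody library was expressed on Saccharomyces cerevisiae BJ5465 by galactose induction for 36–48 hours. The library was stained for 1 hour at 4 °C with 10% biotinylated, detergent-solubilized Sf9 membrane reagent and enriched with streptavidin microbeads before FACS. Low and high (top ~1%) gates were set on anti-HA fluorescence for expression and streptavidin fluorescence for reagent binding, and each polyreactivity label reflects the gate of origin.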

Sequence	polyreactivity (PSR sort gate)
QVQLHESGGGLVQAGGSLRLSCAASGTISVTYNMAWYRQAPGKEREFVAGNSTGATTNYADSVKGRFTISRDNAKNTVYLQMNSLKPEDTAVYYCAAHIYRQDHFYYWGQGTQVTVSS	low polyreactivity
QVQLHESGGGLVQAGGSLRLSCAASGTISYAGPMGWYRQAPGKEREFVAGIGVGSNTNYADSVKGRYTIIRDNAKNTVYLQMNSLKPEDTAVDYCAVGGYAPLGRPYWGQGTQVTVSS	low polyreactivity
QVQLHESGGGLVQAGGSLRLSCAASGTISYAGPMGWYRQAPGKEREFVAGIGVGSNTNYADSVKGRYTIIRDNAKNTVYLQMNSLQPEDTAVYYCAVGGFAPLGRPYWGQGTQVTVSS	low polyreactivity
QVQLHESGGGMVQAGGSLRLSSAASGIIFDNPNMGWYRLSPGKERELVATINSGATTNYADSVKGRFTISRDNEKNTVYLLMNSLIPEETAVYFCAVDLSPTYFYYWGQGTKVTVSS	high polyreactivity
QVQLIESGGGLVKAGGSLRLSCAATGSIFYRNTMGWYRQAPGKERELVARISWSGGRTYYADSVKGRFTISRDNAKNTVYLQMNSLKPEDTAVYYCAASTYGQRGTSYGYWGQGTQVSVSS	low polyreactivity
QVQLIESGGGLVQAGGSLRLSCAASGIIFRTYAMGWYRQAPGKERELVAAITSGGSTNYADSVKGRFTISRDNAKNTVYLQMNSLKPEDTAVYYCAARTYTSRYSYGYWGQGTQVTVSS	high polyreactivity
QVQLIESGGGLVQAGGSLRLSCAASGSTFERNTMGWYRQAPGKERELVAAITSGGRTYYADSVKGRFTISRDNAKNTVYLQMNSLKPEDTAVYYCAARLGRHVSYWRSGWTNMDYWGQGTQVTVSS	high polyreactivity
QVQLIESGGGLVQAGGSLRLSCAASGSTFYGNAMGWYRQAPGKEREFVDAITGSGDSTDYADSVKGRFTISRDNAKNTVYLQMNSLKPEDTAVYFCNAEVFDRDSYEYWGQGTQVSVSS	low polyreactivity
QVQLIESGGGLVQAGGSLRLSCAASGSTLGLYDMGWYRQAPGKERELVAAISTGSGSTYYADSVKGRFTISRDNAKYTVYLLMISLKPEDTAVYYCNTDAWYSPIWFWVDSWGQGTQVTVSS	low polyreactivity
QVQLIESGGVLVQAGGSLRLSCAASGSTFTINVMGWYRQAPGKERELVAAINGGGRTNYADSVKGRFTISRDNAKNTVYLQINSLKPEDTAVYYCAADGLSNVRQMDYWGQGTQVTVSS	low polyreactivity
QVQLKESGAGLVQAGGSLRLCCAASGNIIPDAGMGWYRQAPGKEREFVAGISRGANTYYADSVKGRFTISRDNAKNSVYLQMNSLKPEDTAVYYCNAGSSYLCRFPLDYWGQGTQVTVSS	high polyreactivity
QVQLLDSGGGLVQAGGSLRLSCAASGFIFRPYPMACYRQSPGKERELVAPITGGGSTYYADSVKGRFTISRENAKNTVYLQMNSLKPEDTAVYYCNADRRRRSGGFAGWHFQRNDFWGQGTQVTVSS	low polyreactivity
QVQLLESAGGLVQAGGSLRLICAASGSTFYNYAMGWYRQAPGKERELVDSITSSGVSTYYADSVKGRFTISRDIAKNTVYLQMNSLKPDDTAVYYCNADDGYGQVHSISTYEMDYWGQGTQVTVSS	low polyreactivity
QVQLLESGCGLVQAGGSLRLSCMASGSILGDRMSWYRQAPGKEHELVATIYDGGITYYADSMKGRFTISRDNAKNTVYLQMNSLRPEDTAVYYCGASFEGYRYHVYCGQGTQVTVSS	low polyreactivity
QVQLLESGGCLVQAGGSLRLSCAASGSTFWHNAMGWYRQAPGKERELVAAISSGSSTYYADSVKGRFTISRDNAKNTVYLQMNSLKPEDTAVYYCAKELYLGYRYWGYYWGQGTQVTVSS	high polyreactivity
QVQLLESGGGIVQAGGSHRLRCAASGSIFGTNAMCWYRQATGKERELVAAISLSTGSTYYADSVKGRFTISRDNAKNTVYLQMNSLKPEDTAVYYCAAYYVTPIYYYWGQGTQVTVSS	low polyreactivity
QVQLLESGGGLDQAGGSLRLTSAASGSIFYGYAMGWYRQAPRKERELVAAISYSGDRTYYADSVKGRFTISRDNAKNTVYLQMNSLKPEDTAVYYCAARKHGGTVRGRRDYWGQGTQVTVSS	high polyreactivity
QVQLLESGGGLVKAGGSLRVSCAASGLTFNYYAMGWYRHAPGKDRELCAAISRRGGYTYYADSVKGRFTISRDNAKNTVYVQKNSQKPEDTAVYDCAADNYEHNYYGYYYWGQGNQVTVSS	high polyreactivity
QVQLLESGGGLVQAGGSLLLSCAASGLTFHRYAMGWYRQAPGKERELFAAINYSGGRTYYADSVKGRFTISRDNAKNTVYLQMNSLKPEDSAVYYCAARYLGCDYSGSWWKYYYWGQGTQVTVSS	high polyreactivity
QVQLLESGGGLVQAGGSLRLSCAASGFIFKGNAMGWYRQAPGKERELVAAITNRGGGTYYADSVKGRFTISRDNAKNTVYLLMNSLKPEDTAVYYCAKAYTLPFHPYDYWGQGTQVTVSS	high polyreactivity
QVQLLESGGGLVQAGGSLRLSCAASGFTFWYYAMGWYRQAPGKEREFVASISWNGGRTYYADSVKGRFTISRDNAMNTVYLQMNSLKPEDTAVYYCATRVIYSFTDFKGDYWGQGTQVTVSS	high polyreactivity
QVQLLESGGGLVQAGGSLRLSCAASGGTFRPYAMGWYRQAPGKERELVAAISFTGSTYYADSVKGRFTISRDNAKNTVYLQMNSLKPEDTAVYYCAKDFWYPPRFDYWGQGTQVTVSS	low polyreactivity

Sequence	polyreactivity (PSR sort gate)
QVQLLESGGGLVQAGGSLRLSCAASGIIFCEYAMGWYTQAPGKERELVATITSGDSTNYADSVKGRFTISRDNAKNTVYLQMNSLKPEDTAVYYCIADYAFLPSYDYWGQGTQVTVSS	low polyreactivity
QVQLLESGGGLVQAGGSLRLSCAASGIIVSYAMGWYRQAPGKERELVAAIRYSGDSTYYADSVKGRFTISRDNAKNTVYLQMNSLKPEDTAVYYCAATKGWSRYEYWGQGTQVTVSS	low polyreactivity
QVQLLESGGGLVQAGGSLRLSCAASGLIFAYAMGWYRQAPGKERELVAVISWSGGSTYYADSVKGRFTISRDNAKNTVYLQKNSLKPEDTAVYYCAADYFGNWQLAGGYLGQGTQVTVSS	low polyreactivity
QVQLLESGGGLVQAGGSLRLSCAASGLIFWGYAMGWYRQAPGKERELVAAINATGGRTYYADSVKGRFTISRDNAKNTVYLQMNSLKPEDTAVYYCAAYSGFYDSYDYWGQGTQVTVSS	low polyreactivity
QVQLLESGGGLVQAGGSLRLSCAASGLTFSSYTMGWYRQAPGKERELVAANTRRGTSTYYADSVKGRFTISRDNAKNTVYLQMNSLKPEDTAVYYCNALVYDEYGYYHYYLRNGGYYWGQGTQVTVSS	high polyreactivity
QVQLLESGGGLVQAGGSLRLSCAASGRIFGRYAMGWYRQAPGKERELVAAISSGGRTNYADSVKGRFTISRDNAKNTVYLQMNSLKPEDTAVYYCAARAYTYQAQSNYWGQGTQVTVSS	high polyreactivity
QVQLLESGGGLVQAGGSLRLSCAASGRIFKFKAMGWYRQAPGKERQLVAATWSGGRTSYADSVKGRITISRDNAKYTVYLQMNSLKPEDTAVYYCAARWFDGDWDYWYDYWGQGTQVTVSS	low polyreactivity
QVQLLESGGGLVQAGGSLRLSCAASGRTFAWNAMGWYRQAPGNERELVARLRSSGSTYYADSVKGRFTISRDNAKNTVYLQMNSLKPEDTAVYYGAKKWGWFPVYYWGQGTQVTVSS	high polyreactivity
QVQLLESGGGLVQAGGSLRLSCAASGRTFTRNAMGWNRQAPGKERELVATIRYSTGTTYYADSVKGRFTISRDNAKNTVYLQMNSLKPEDTAVYYCAARVYRYRGYDSWGKGTQVTVSS	high polyreactivity
QVQLLESGGGLVQAGGSLRLSCAASGRTFWYYVMGWYRQAPGKERELFAAITSSGGSTYYADSVKGRFTISRDNAKNSVYLQMNSLKAEDTSVYYCGAAAYTRGYYWGQGTEVTVSS	low polyreactivity
QVQLLESGGGLVQAGGSLRLSCAASGRTFYRTAKGWYRQAPGKERELVASITRSGNTNYADSVKGRFTISRDNAKNTVYLQMNSLKPEDTAVYYCAARPWLRNKYDYWGQGTQVTVSS	high polyreactivity
QVQLLESGGGLVQAGGSLRLSCAASGSIFANNAMGWYRQSPGKEREMVAAIDWSAASTYYADSVKGRFTISRDNAKNTVYLQMNSLKPEDTAVYYWNRRGSGGESYRTTTGALGYWGQGTQVTVSS	low polyreactivity
QVQLLESGGGLVQAGGSLRLSCAASGSIFATYAMGWYRQAPGKERELVAAISSSGARTYYADSVKGRFTISRDNAKNTVYLQMNSLKPEDTAVYYCNADLYSYFWRVRYGLDYWGQGTQVTVSS	high polyreactivity
QVQLLESGGGLVQAGGSLRLSCAASGSIFDPYAMGWYRQAPGKERELVAVINDGGRTTYADSVKGRFTISRDNAKNTVYLQMNRLKPEDTAVYYCAATSYFSRWDLYGYWGQGTQVTVSS	low polyreactivity
QVQLLESGGGLVQAGGSLRLSCAASGSIFGLYAMGWYRQAPGKERELVAAISPRGGSTYYADSVKGRFTISRDNAKNTVYLQMNSLKPEDTAVYYCNRDYIRYALGHDYWGQGTQVTVSS	high polyreactivity
QVQLLESGGGLVQAGGSLRLSCAASGSIFTEYAMGWYRQAPGKERELVAAITYSGGSTYYADSVKGRFTISRDNAKNTVYLQMHSLKPDDTAVYYCNADYRIYVAYYYWGQGTQVTVSS	low polyreactivity
QVQLLESGGGLVQAGGSLRLSCAASGSTFGYYAMGWYRQAPGKERELVAAITRSGSSTYYADSVKGRFTISRDNAKNTVYLQMNSLKPEDTAVYYCAAEARYWIYEYDYWGQGTQVTGSS	high polyreactivity
QVQLLESGGGLVQAGGSLRLSCAASGSTFPRNAMGWYRQAPGKERELVATITSSGGGTYYADSVKGRFTISRDNAKNTVYLQMNSLKPEDTAVDYCNADGPAGDAFDYWGQGTQVTVSS	low polyreactivity
QVQLLESGGGLVQAGGSLRLSCAASGSTIRVNGMGWYRQAPGKERELVAVISWSGGSTYYADSVKGRFTISRDNAKNTVYLQMNSLKPEDTAVYYCNKLIYDEDEYWGQGTQVSVSS	high polyreactivity
QVQLLESGGGLVQAGGSLRLSCAASGYTFKAYAMGWYRQAPGKERELVAAISRGGRTNYADSVKGRFTISRDNAKYTVYLQMNSLKPEDTAVYYCNTQRQLGERFYDRSRQGDYWGHGTQVTVSS	high polyreactivity
QVQLLESGGGLVQAGGSLRLSCAASGYTFRFNAMGWNRQAPGKETEFVAAIDFGGAGTYYADSVKGRFTISRDNAKNTVYLQMNSLKPEDTAVYYCNARDGVTTEFDYWGQVTQVTVSS	low polyreactivity
